One block for each molecule: values may come before it. Where a SMILES comes first, the peptide text is derived from it. [ ]: non-standard residue; d: D form. The star is where a group is joined. Biotin = O=C1N[C@H]2[C@H](CS[C@H]2CCCCC(=O)*)N1; Bpa = N[C@@H](Cc1ccc(C(=O)c2ccccc2)cc1)C(=O)O; Sta = CC(C)C[C@H](N)[C@@H](O)CC(=O)O; Isovaleryl = CC(C)CC(=O)*
Experiments:
[1] = target: T1, γ-secretase (Homo sapiens (Human), UniProt P49768+Q92542); assay: In vitro γ-secretase assay, HeLa membrane, APP-derived substrates, ECL detection; assay type: biochemical; conditions: for effect on γ-secretase processing of the S3 substrate (in trans): peptide 0.1, 1 and 10 μM, S3 0.5, 1 and 2 μM; for γ-secretase activity %: cleavage of the substrate at the Aβ40 site, HeLa membrane, G2-10 antibody; for inhibition of X40 production / suppression of Aβ production: 1 μM βCTF substrate
Protocol: The recombinant proteins were incubated with γ-secretase (40 μg/ml) in the presence or absence of 1 μM γ-secretase inhibitor L-685,458 (CAS [292632-98-5], shown below). The reaction mixture contains 0.25% 3[(3-cholamidopropyl) dimethylammonio]-2-hydroxypropanesulfonic acid (CHAPSO), 0.1 μg/μl BSA, protease inhibitor, 50 mM PIPES, pH 7.0, 5 mM MgCl2, 5 mM CaCl2 and 150 mM KCl. The reaction was incubated for 2.5 hr at 37° C. and stopped by adding RIPA buffer (150 mM NaCl, 1.0% NP-40, 0.5% sodium
[drawing 1] deoxycholate, 0.1% SDS, 50 mM Tris HCl, pH 8.0). The products were detected with various antibody combinations as previously described (Lai et al., 2003; J. Biol. Chem., 278: 22475-22481; Li et al., 2000, Proc. Natl. Acad. Sci. USA, 97: 6138-6143; Yin et al., 2007, J. Biol. Chem., 282:23639-23644) using electrochemiluminescence (ECL). The amount of product was determined using synthetic peptide or recombinant standards. The Km and Vmax were determined from the Michaelis-Menten equation Michaelis-Menten Kinetics (ν=Vm[S]/([…]; ν: initial rate; Vm: maximum velocity; Km: the Michaelis-Menten constant, S: substrate). P-values were calculated from Student t-test. 7.1.5 Cell-Based Aβ Production Assay and Western Blot

[2] = target: T2, γ-secretase (Homo sapiens (Human), UniProt P49768); assay: HTRF γ-secretase assay with Sb4 substrate; assay type: biochemical; conditions: for pilot screen result: 10 μM, 1536-well
Excerpt: We set out to transfer the assay conditions obtained with the ECL method to an HTRF detection based format (FIG. 10b). The HTRF detection mixture consisted of mouse G2-10 antibody for recognition of the C-terminal epitope of the cleaved product, a Europium-labeled anti-mouse antibody (commonly, an antibody is conjugated with a cryptate ligand that forms a three dimensional coordination cage structure surrounding a lanthanide such as Eu^3+), along with Streptavidin conjugated to a trimeric form of the fluorescent protein allophycocyanin referred to as XL665. Cleavage of Sb4 substrate allows G2-10 mouse antibody to bind to the Aβ40-processed site on the cleaved substrate. The Steptavidin-XL665 conjugate binds directly with the biotin moiety on the N-terminal end of the Sb4 derived product. The anti-mouse Europium antibody targets to the G2-10 antibody, bringing all of these entities into close proximity. The Europium and XL665 reagents are a compatible pair of donor-acceptor fluorophores, and excitation of Europium at 337 nm results in fluorescence energy resonance transfer (FRET) to XL665 which fluoresces at 665 nm (FIG. 10b).
Human γ-secretase was prepared from HeLa cell membranes as described previously (Li et al., 2000). Briefly, HeLa cell pellet was resuspended in 1×MES buffer (50 mM MES, pH 6.0, 150 mM KCl, 5 mM CaCl2, 5 mM MgCl2) and treated with ‘complete’ protease inhibitor (Boehringer Mannheim). The resuspended pellet was mechanically homogenized by passing the cells through the French Press (Spectronic Instruments), and subsequently spun down at 800 g to remove cell debris and nuclei. Next, the supernatants were spun at 100,000 g in order to pellet the membranes. The pelleted membranes were resuspended in 1×MES buffer to approximately 12 mg/ml. This entire procedure was performed at 4° C. HeLa membranes were solubilized using 1% CHAPSO detergent in 1×MES buffer with protease inhibitors. After incubating for 1 hr at 4° C., the membrane was spun down at 100,000 g and the supernatants were collected and stored at −70° C. The collected fraction is defined as solubilized γ-secretase.
HTRF conditions were initially optimized in a 384-well format using a final volume of 20 μl. The high control for this assay was defined as the observed γ-secretase activity in the presence of 1% DMSO (v/v) and the low control as the activity observed when including 100 nM final concentration of Compound E (v/v). First, we determined a tolerable DMSO concentration that would not interfere with γ-secretase activity. Even with 3% DMSO (v/v) present in the assay mixture, there was virtually no effect on the γ-secretase activity (FIG. 11a), which was critical as delivery of library screening compounds required a final concentration of 2% DMSO (v/v) in the γ-secretase reaction. Next, we titrated the HTRF mixture components in an effort to minimize reagent costs for use in high throughput screening. […] Additionally, we varied Europium conjugated anti-mouse antibody and determined that 1 nM of this reagent in the HTRF mixture was sufficient for our assay conditions even though the signal continued to increase with higher concentrations of the anti-mouse antibody (FIG. 11c).
We have further miniaturized the HTRF assay from the established 384-well format to a 1536-well platform enabling more efficient screening of large chemical libraries. […] Based on these optimization experiments, we set our final assay conditions at 0.3 nM G2-10, 1 nM anti-mouse antibody, 15 nM Streptavidin-XL665, and proceeded with the assay at 10 μl final volume (5 μl γ-secretase mix+5 μl HTRF mix) in the 1536-well format for screening.
The pilot assay was performed in duplicate on two separate days to account for any day-to-day variability. […]

[3] = target: T2, γ-secretase; assay: In vitro γ-secretase assay, solubilized γ-secretase, ECL; assay type: biochemical; conditions: substrate 1 μM, background with Compound E
Excerpt: The γ-secretase cleaved Aβ product derived from C100Flag substrate was detected by a pair of antibodies (biotinylated 4G8 and ruthenylated G2-10*) while Sb4 cleaved product was detected by ruthenylated G2-10* alone (FIG. 10a) and quantified using electrochemiluminescence (ECL) technology.
An in vitro assay was based on the one previously reported by Li et al. (2000), except we utilized Sb4 substrate that eliminated the need for biotinylated antibody. […] All assays incorporate ruthenylated G2-10* antibody to detect 40-site cleavage of APP or recombinant Sb4 substrate and quantitated activity by measuring ECL.

[4] = target: T1, γ-secretase; assay: Photoaffinity labeling of γ-secretase in HeLa membrane by Aβ17-23BPA20-biotin; assay type: binding; conditions: probe 300 nM
Protocol: FIG. 4. […] Various concentrations of inhibitor were incubated with APP substrate (S4) or Notch peptide substrate containing the C-terminal biotinylated transmembrane domain of Notch1 and HeLa cell membrane in the presence of 0.25% CHAPSO. Aβ40 was detected by G2-10 antibody. The cleaved Notch product was detected by Val1744 antibody that specifically recognizes the cleaved product between Gly1743 and Val1744. Activities are expressed as percentage relative to reading that was produced in DMSO control. […] Various concentrations of S4 substrate were incubated with HeLa membrane in fixed concentrations of inhibitor as indicated. The double reciprocal velocity (1/v) and substrate concentrations (1/S) are plotted to determine the type of inhibition. […] Assays were conducted as described in FIG. 4A. […] The labeled samples were solubilized with RIPA buffer. Biotinylated proteins were captured with streptavidin-agarose and probed by immunoblotting using antibodies against biotin, PS1-CTF, PS1-NTF, Nicastrin, PEN-2 and APH-1a. HeLa cell membrane proteins were directly loaded onto lanes indicated by an arrow in the PEN-2 and APH-1a blots as positive controls. […] Upper panel: PS1-NTF; Lower panel: PS1-CTF.
The labeled proteins were eluted with 2×SDS sample buffer and analyzed with Western blotting using antibodies against the components of γ-secretase complex. Protein concentration was determined with the Dc protein assay kit (Bio-Rad)
After the photolyzed membranes were solubilized, biotinylated proteins were captured, eluted and analyzed by western blotting with antibodies against biotin, PS1, nicastrin, PEN-2 and APH-1.

Molecule: P3-42: synthetic P3 peptide Aβ17-42 (LVFFAEDVGSNKGAIIGLMVGGVVIA; Amyloid-beta protein 42; UniProt P05067 688-713, looked up, fragment)
inhibition of Aβ40 production ([1]; 1, 3, 10 and 30 nM, βCTF or βCTFΔ substrate): did not inhibit

Molecule: O=C(O)CCCC[C@@H]1SC[C@@H]2NC(=O)N[C@@H]21 [biotin]
pilot screen result [2]: active hit

Molecule: C100Flag: truncated APP protein used in previously published γ-secretase assays
ratio of signal to background [3]: 7 to 1

Molecule: N.N.[Cl][Pt][Cl] [Cisplatin]
pilot screen result [2]: active compound

Molecule: AviTag-LVFFAEDVGSNKGAIIGLMVGGVVIATVIVITLVMLKKK [S2]
γ-secretase activity % [1]: None

Molecule: CC(C)CC(=O)N[C@H](C(=O)N[C@H](C(=O)N[C@@H](CC(C)C)[C@@H](O)CC(=O)N[C@@H](C)C(=O)N[C@@H](CC(C)C)[C@@H](O)CC(=O)O)C(C)C)C(C)C [Pepstatin A] (Isovaleryl-VV[Sta]A[Sta]-OH)
pilot screen result [2]: active compound
IC50 ([2]; dose response, read-out: IC50, HTRF assay): 6.43 µM

Molecule: AviTag-KGAIIGLMVGGVVIATVIVITLVMLKKK [S1]
γ-secretase activity % [1]: 100 ± 4.2%

Molecule: CC(C)C[C@H](N)C(=O)N[C@H](C(=O)N[C@@H](Cc1ccccc1)C(=O)N[C@@H](Cc1ccc(C(=O)c2ccccc2)cc1)C(=O)N[C@@H](C)C(=O)N[C@@H](CCC(=O)O)C(=O)N[C@@H](CC(=O)O)C(=O)N[C@@H](CCCCNC(=O)CCCC[C@@H]1SC[C@@H]2NC(=O)N[C@@H]21)C(=O)O)C(C)C [Aβ17-23BPA^20-biotin] (H-LVF[Bpa]AEDK(Biotin)-OH; N-terminus and C-terminus assumed)
photolabeled bands, PS1 [4]: co-migrated with PS1-CTF and PS1-NTF
photolabeling of PEN-2 and APH1a [4]: not PEN-2 or APH1a
photolabeling of nicastrin [4]: labels nicastrin

B1: S3: AviTag substrate from Aβ17 with C-terminal tail of APP and FLAG (protein, listed as Homo sapiens)
chain: GLNDIFEAQKIEWHELVFFAEDVGSNKGAIIGLMVGGVVIATVIVITLVMLKKKQYTSIHHGVVEVDAAVTPEERHLSKMQQNGYENPTYKFFEQMQNDYKDDDDK
γ-secretase activity % [1]: None

Further lines, with some results ahead:

effect on γ-secretase processing of the S3 substrate (in trans) [1]: no difference
Molecule: Aβ8-16: Aβ1-16 derived synthetic peptide (SGYEVHHQK; Amyloid-beta protein 42; UniProt P05067 679-687, looked up, fragment)

rate of γ-secretase hydrolysis relative to αCTF-FLAG ([1]; X40 production, 4G8/G2-10 antibodies): 12 fold
Molecule: βCTF: recombinant β-secretase cleaved APP C-terminal fragment
Vmax ([1]; Aβ40 product, 6E10/G2-10, ECL): 16 ± 1 min⁻¹ µg⁻¹
Km ([1]; Aβ40 product, 6E10/G2-10, ECL, read-out: apparent Km): 0.47 ± 0.09 µM

inhibition of γ-secretase activity, APP processing [1]: no inhibition
effect on γ-secretase processing of the S3 substrate (in trans) [1]: no difference
Molecule: Aβ1-7: Aβ1-16 derived synthetic peptide (DAEFRHD; Amyloid-beta protein 42; UniProt P05067 672-678, looked up, fragment)

inhibition of X40 production ([1]; 0.25 μM): 24%
suppression of Aβ production ([1]; 0.25 μM): 66%
inhibition of X40 production ([1]; 0.5 μM): 32%
suppression of Aβ production ([1]; 0.5 μM): 71%
inhibition of X40 production ([1]; 1.0 μM): 60%
suppression of Aβ production ([1]; 1.0 μM): 82%
Molecule: αCTF: recombinant α-secretase cleaved APP C-terminal fragment

ratio of signal to background [3]: 93 to 1
B2: Sb4: biotinylated AviTag-APP695(620-695) recombinant substrate (protein, listed as Homo sapiens)
chain: GLNDIFEAQKIEWHEVGSNKGAIIGLMVGGVVIATVIVITLVMLKKKQYTSIHHGVVEVDAAVTPEERHLSKMQQNGYENPTYKFFEQMQN
modifications: biotinylated
notes: biotinylated AviTag-APP695(620-695) recombinant substrate

From patent publication US9023767B2, “γ-Secretase substrates and methods of use” (Memorial Sloan-Kettering Cancer Center, priority 2009, dated 2015)
